{"source": "patent US7371842B2", "about": "“Polynucleotide encoding a 35 KDA protein thats binds to WF00144” (Astellas Pharma Inc., priority 2002, dated 2008)", "test": "Aldol cleavage reaction of fructose 1,6-bisphosphate, coupled with TIM/G3PDH, NADH 340 nm", "format": "biochemical", "settings": "F1,6P2 cleaved, 37° C., 30 minutes, pH 8.0", "procedure": "The aldolase activity of the human 35 kd protein was determined as follows, according to the method described in a reference (Novel Biochemistry Experiment Lectures, Vol. 15, Metabolism Abnormality, p. 111, edit. Biochemical Society of Japan, publish. Tokyo Kagaku Dojin-sha, Sep. 22, 1992):\nConjugated with triose phosphate isomerase (TIM) and glycerol 3-phosphate dehydrogenase (G3PDH), the aldol cleavage reaction of fructose 1,6-bisphosphate (F1, 6P2) with the 35 kd protein was determined with NADH.\nA reaction liquid having the composition mentioned below was prepared, and reacted at 37° C. for 30 minutes. The enzymatic reaction was monitored through the reduction in the 340 nm absorbance owing to the oxidation of NADH in the reaction liquid. The enzymatic reaction was indicated by the number of mols of F1, 6P2, per mg of the protein, cleaved within 1 minute (μmol/min/mg protein).\nReaction liquid 200 μl: 0.25 mM tris HCl buffer (pH 8.0), 0.15 M NaCl, 0.5 mM F1, 6P2 (from Sigma), human 35 kd protein, human liver TIM (500 μg/ml), rabbit skeletal muscle G3PDH (8 units/ml, from Sigma), 0.3 mM NADH (from Nakarai).\nFor comparison, a commercial product aldolase, Sigma's rabbit skeletal muscle aldolase (A-type aldolase), and an enzyme-free system were tested in the same manner."}
{"molecule": "Human 35 kd protein: novel 35 kd protein, amino acid sequence SEQ ID NO: 2, expressed in E. coli and purified (protein, listed as Homo sapiens) MLGPQVWSSVRQGLSRSLSRNVGVWASGEGKKVDIAGIYPPVTTPFTATAEVDYGKLEENLHKLGTFPFRGFVVQGSNGEFPFLTSSERLEVVSRVRQAMPKNRLLLAGSGCESTQATVEMTVSMAQVGADAAMVVTPCYYRGRMSSAALIHHYTKVADLSPIPVVLYSVPANTGLDLPVDAVVTLSQHPNIVGMKDSGGDVTRIGLIVHKTRKQDFQVLAGSAGFLMASYALGAVGGVCALANVLGAQVCQLERLCCTGQWEDAQKLQHRLIEPNAAVTRRFGIPGLKKIMDWFGYYGGPCRAPLQELSPAEEEALRMDFTSNGWL", "values": [{"measurement": "Aldolase Activity (μmol/min/mg protein)", "result": 0.0034, "unit": "μmol/min/mg protein"}]}
